First the molecules themselves.
B1: INTS3 (parent)
chain: FSDDEEDLNSKGKKREFRFHPIKE
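Note: lentivirally expressed fusions sorted by FACS into six bins by GFP to DsRed ratio, PSI derived from sequencing read proportions per bin multiplied by bin number.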

This data set covers variants of B1. The data set is described as follows: protein stability index of a GFP-peptide fusion (GPS, HEK-293T) (PSI 1-6); higher = more stable. The note with it: c terminus: a fixed tail appended.
In the case of FSDDEFDLNSKGKKREFRFHPIKE [E6F], the protein stability index amounted to 2.13.

Consider FSDDEEDYNSKGKKREFRFHPIKE [L8Y], for which the protein stability index stood at 3. Then FSDDEEDFNSKGKKREFRFHPIKE [L8F], with 2.75; and FSDDEEDQNSKGKKREFRFHPIKE [L8Q], with 3.44; and FSDDEEDMNSKGKKREFRFHPIKE [L8M], with 2.78.

As for FSDDEEDCNSKGKKREFRFHPIKE [L8C], the protein stability index is 2.99. Then FSDDEEDPNSKGKKREFRFHPIKE [L8P], with 3.4; and FSDDEEDGNSKGKKREFRFHPIKE [L8G], with 3.29; and FSDDEEDKNSKGKKREFRFHPIKE [L8K], with 2.78.

In the case of FSDDEEDENSKGKKREFRFHPIKE [L8E], the protein stability index stood at 3.4. For FSDDEEDSNSKGKKREFRFHPIKE [L8S] the value was 3.37. Then FSDDEEDVNSKGKKREFRFHPIKE [L8V], with 2.99.

Turning to FSDDEEDWNSKGKKREFRFHPIKE [L8W], the protein stability index is 2.84. On to FSDDEEDANSKGKKREFRFHPIKE [L8A], for which the protein stability index turned out to be 3.35. Then FSDDEEDINSKGKKREFRFHPIKE [L8I], with 2.83. On to FSDDEEDDNSKGKKREFRFHPIKE [L8D], for which the protein stability index turned out to be 3.26. For FSDDEEDHNSKGKKREFRFHPIKE [L8H] the value was 2.73. For FSDDEEDRNSKGKKREFRFHPIKE [L8R] the value was 2.94; for FSDDEEDNNSKGKKREFRFHPIKE [L8N], 2.99. Then FSDDEEDTNSKGKKREFRFHPIKE [L8T], with 3.23. For the variant FSDDEEDLNSWGKKREFRFHPIKE [K11W], the protein stability index turned out to be 1.9.

Take FSDDEEDLNSTGKKREFRFHPIKE [K11T]: the protein stability index turned out to be 3.35. Then FSDDEEDLNSCGKKREFRFHPIKE [K11C], with 2.99; and FSDDEEDLNSYGKKREFRFHPIKE [K11Y], with 3.29.

As for FSDDEEDLNSQGKKREFRFHPIKE [K11Q], the protein stability index worked out at 3.62. Then FSDDEEDLNSGGKKREFRFHPIKE [K11G], with 3.02; and FSDDEEDLNSPGKKREFRFHPIKE [K11P], with 3.38; and FSDDEEDLNSSGKKREFRFHPIKE [K11S], with 3.22. In the case of FSDDEEDLNSAGKKREFRFHPIKE [K11A], the protein stability index was determined as 3.62.

For FSDDEEDLNSHGKKREFRFHPIKE [K11H], the protein stability index came out at 3.13.

For the variant FSDDEEDLNSRGKKREFRFHPIKE [K11R], the protein stability index is 3.2. For FSDDEEDLNSMGKKREFRFHPIKE [K11M] the value was 2.79. Then FSDDEEDLNSNGKKREFRFHPIKE [K11N], with 3.44.

Regarding FSDDEEDLNSIGKKREFRFHPIKE [K11I], the protein stability index was 3.48. As to FSDDEEDLNSEGKKREFRFHPIKE [K11E], the protein stability index was 3.38.

As to FSDDEEDLNSFGKKREFRFHPIKE [K11F], the protein stability index was found to be 3.24. Then FSDDEEDLNSVGKKREFRFHPIKE [K11V], with 2.89; and FSDDEEDLNSDGKKREFRFHPIKE [K11D], with 3.56. Then FSDDEEDLNSLGKKREFRFHPIKE [K11L], with 2.73. FSDYEEDLNSKGKKREFRFHPIKE [D4Y]: the protein stability index came out at 2.51. Then FSDVEEDLNSKGKKREFRFHPIKE [D4V], with 2.23; and FSDWEEDLNSKGKKREFRFHPIKE [D4W], with 2.4; and FSDTEEDLNSKGKKREFRFHPIKE [D4T], with 2.56. For FSDDEEDLSSKGKKREFRFHPIKE [N9S] the value was 2.98; for FSDDEEDLTSKGKKREFRFHPIKE [N9T], 3.36. Then FSDDEEDLQSKGKKREFRFHPIKE [N9Q], with 2.68; and FSDDEEDLLSKGKKREFRFHPIKE [N9L], with 2.99. Consider FSDDEEDLPSKGKKREFRFHPIKE [N9P], for which the protein stability index came to 2.61. For FSDDEEDLCSKGKKREFRFHPIKE [N9C] the value was 2.67; for FSDDEEDLISKGKKREFRFHPIKE [N9I], 2.06. Turning to FSDDEEDLESKGKKREFRFHPIKE [N9E], the protein stability index is 3.6.

As to FSDDEEDLFSKGKKREFRFHPIKE [N9F], the protein stability index amounted to 2.31.

Regarding FSDDEEDLHSKGKKREFRFHPIKE [N9H], the protein stability index came to 2.77. For FSDDEEDLKSKGKKREFRFHPIKE [N9K] the value was 2.21.

As for FSDDEEDLVSKGKKREFRFHPIKE [N9V], the protein stability index is 3.83. Then FSDDEEDLDSKGKKREFRFHPIKE [N9D], with 3.79; and FSDDEEDLGSKGKKREFRFHPIKE [N9G], with 2.82; and FSDDEEDLASKGKKREFRFHPIKE [N9A], with 3.15. For FSDDEEDLRSKGKKREFRFHPIKE [N9R] the value was 2.76. On to FSDDEEDLMSKGKKREFRFHPIKE [N9M], for which the protein stability index stood at 2.66.

Consider FSDDEEDLWSKGKKREFRFHPIKE [N9W], for which the protein stability index was determined as 2.12.

FSDDEEDLYSKGKKREFRFHPIKE [N9Y]: the protein stability index came to 2.29. For FSDDEEDLNRKGKKREFRFHPIKE [S10R] the value was 2.41; for FSDDEEDLNAKGKKREFRFHPIKE [S10A], 2.58; for FSDDEEDLNLKGKKREFRFHPIKE [S10L], 2.57. Then FSDDEEDLNFKGKKREFRFHPIKE [S10F], with 2.45. For FSDDEEDLNMKGKKREFRFHPIKE [S10M] the value was 3.56; for FSDDEEDLNWKGKKREFRFHPIKE [S10W], 3.56.

As for FSDDEEDLNDKGKKREFRFHPIKE [S10D], the protein stability index came out at 3.64.

Consider FSDDEEDLNTKGKKREFRFHPIKE [S10T], for which the protein stability index was 2.87. For FSDDEEDLNKKGKKREFRFHPIKE [S10K] the value was 2.38. On to FSDDEEDLNNKGKKREFRFHPIKE [S10N], for which the protein stability index was found to be 3.37. Then FSDDEEDLNQKGKKREFRFHPIKE [S10Q], with 3.43; and FSDDEEDLNIKGKKREFRFHPIKE [S10I], with 2.17. FSDDEEDLNHKGKKREFRFHPIKE [S10H]: the protein stability index turned out to be 2.64. On to FSDDEEDLNCKGKKREFRFHPIKE [S10C], for which the protein stability index is 3.08. Then FSDDEEDLNVKGKKREFRFHPIKE [S10V], with 2.75; and FSDDEEDLNPKGKKREFRFHPIKE [S10P], with 2.63. Consider FSDDEEDLNEKGKKREFRFHPIKE [S10E], for which the protein stability index amounted to 2.99. Then FSDDEEDLNYKGKKREFRFHPIKE [S10Y], with 2.59; and FSDDEEDLNGKGKKREFRFHPIKE [S10G], with 2.9; and FSDDEEDLNSKGKCREFRFHPIKE [K14C], with 2.66. For FSDDEEDLNSKGKHREFRFHPIKE [K14H] the value was 2.86; for FSDDEEDLNSKGKLREFRFHPIKE [K14L], 2.11.

For FSDDEEDLNSKGKIREFRFHPIKE [K14I], the protein stability index worked out at 1.88. On to FSDDEEDLNSKGKFREFRFHPIKE [K14F], for which the protein stability index came to 2.13. For FSDDEEDLNSKGKEREFRFHPIKE [K14E] the value was 3.44; for FSDDEEDLNSKGKMREFRFHPIKE [K14M], 1.41. For FSDDEEDLNSKGKQREFRFHPIKE [K14Q] the value was 3.1; for FSDDEEDLNSKGKPREFRFHPIKE [K14P], 3.46; for FSDDEEDLNSKGKDREFRFHPIKE [K14D], 3.73.

Take FSDDEEDLNSKGKGREFRFHPIKE [K14G]: the protein stability index was found to be 2.96. Then FSDDEEDLNSKGKAREFRFHPIKE [K14A], with 3.01; and FSDDEEDLNSKGKNREFRFHPIKE [K14N], with 3.27.
